# Measured values from article PMC12712897.
# Columns and labels:
# [1] = molecular target: type I interleukin-1 receptor (UniProt P14778); experiment: MST; fluorescently labeled IL-1R1 titrated with serially diluted IL-1Ra variants and IL-1β; Monolith NT.115-pico
# [2] = molecular target: type I interleukin-1 receptor (UniProt P14778); experiment: SPR; IL-1R1 captured on a CM5 chip via a His Capture Kit; various concentrations of IL-1Ra variants and IL-1β flowed as analytes; Biacore T200
# [3] = molecular target: type I interleukin-1 receptor (UniProt P14778)
# [4] = molecular target: type I interleukin-1 receptor (UniProt P14778); remark: listed apart in the source
# Sequence of UniProt P14778 (P14778 18-336): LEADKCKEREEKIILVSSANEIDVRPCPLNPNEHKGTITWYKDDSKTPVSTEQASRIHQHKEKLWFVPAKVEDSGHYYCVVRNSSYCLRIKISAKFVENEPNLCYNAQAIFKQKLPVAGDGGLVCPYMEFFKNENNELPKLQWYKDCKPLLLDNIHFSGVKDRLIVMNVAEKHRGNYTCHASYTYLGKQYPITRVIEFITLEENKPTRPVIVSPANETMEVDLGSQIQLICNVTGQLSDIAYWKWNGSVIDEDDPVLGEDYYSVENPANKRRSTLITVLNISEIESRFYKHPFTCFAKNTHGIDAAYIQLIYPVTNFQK
Substance,Kd [1],Kd [2],"reduction of IL-6 mRNA in HMC-3 cells (IL-1β 1 ng/ml + hIL-1Ra 25 ng/ml, 24 h; blocks IL-1β acting on IL-1R1) compared with RD hIL-1Ra WT [3]","reduction of IL-6 mRNA in HMC-3 cells (IL-1β 1 ng/ml + hIL-1Ra 25 ng/ml, 24 h; blocks IL-1β acting on IL-1R1) compared with iPT hIL-1Ra WT [3]","reduction of IL-1β mRNA in HMC-3 cells (IL-1β 1 ng/ml + hIL-1Ra 25 ng/ml, 24 h; blocks IL-1β acting on IL-1R1) compared with RD hIL-1Ra WT [4]","reduction of IL-1β mRNA in HMC-3 cells (IL-1β 1 ng/ml + hIL-1Ra 25 ng/ml, 24 h; blocks IL-1β acting on IL-1R1) compared with iPT hIL-1Ra WT [4]"
hIL-1Ra E127N (natural protein),6.06 nM,0.281 nM,–,–,–,–
hIL-1Ra E127K (natural protein),5.54 nM,0.41 nM,–,–,35%,32%
hIL-1Ra E127D (natural protein),40.6 nM,3.5 nM,–,–,–,–
hIL-1Ra E127C (natural protein),7.52 nM,0.396 nM,–,–,–,–

# These reach a lower Kd [1]. Values come first.
Kd [1],Kd [2],"reduction of IL-6 mRNA in HMC-3 cells (IL-1β 1 ng/ml + hIL-1Ra 25 ng/ml, 24 h; blocks IL-1β acting on IL-1R1) compared with RD hIL-1Ra WT [3]","reduction of IL-6 mRNA in HMC-3 cells (IL-1β 1 ng/ml + hIL-1Ra 25 ng/ml, 24 h; blocks IL-1β acting on IL-1R1) compared with iPT hIL-1Ra WT [3]","reduction of IL-1β mRNA in HMC-3 cells (IL-1β 1 ng/ml + hIL-1Ra 25 ng/ml, 24 h; blocks IL-1β acting on IL-1R1) compared with RD hIL-1Ra WT [4]","reduction of IL-1β mRNA in HMC-3 cells (IL-1β 1 ng/ml + hIL-1Ra 25 ng/ml, 24 h; blocks IL-1β acting on IL-1R1) compared with iPT hIL-1Ra WT [4]",Substance
4.59 nM,0.256 nM,–,–,–,–,hIL-1Ra E127H (natural protein)
4.61 nM,0.258 nM,–,–,–,–,hIL-1Ra E127V (natural protein)
3.84 nM,0.283 nM,53%,49%,–,–,hIL-1Ra E127Q (natural protein)
2.45 nM,0.248 nM,–,–,–,–,hIL-1Ra E127S (natural protein)
